Earlier results, collected in publication PMC7887631.

Molecular target: Prion protein (PrPC) (UniProt P04156)

Substance: STI1 (from UniProt P31948)
- Kd: 100 nM
